This data set in a line: self-splicing fitness, log relative to wild type (ln ratio); higher = more splicing; Tetrahymena group I intron in knt gene, E. coli kanamycin selection, DiMSum; sequences stand for … in CUCUCU…GGAGGGAAAAGUUAUCAGGCAUGCACCUGGUAGCUAGUCUUUAAACCAAUAGAUUGCAUCGGUUUAAAAGGCAAGACCGUCAAAUUGCGGGAAAGGGGUCAACAGCCGUUCAGUACCAAGUCUCAGGGGAAACUUUGAGAUGGCCUUGCAAAGGGUAUGGUAAUAAGCUGACGGACAUGGUCCUAACCACGCAGCCAAGUCCUAAGUCAACAGAUCUUCUGUUGAUAUGGAUGCAGUUCACAGACUAAAUGUCGGUCGGGGAAGAUGUAUUCUUCUCAUAAGAUAUAGUCGGACCUCUCCUUAAUGGGAGCUAGCGGAUGAAGUGAUGCAACACUGGAGCCGCUGGGAACUAAUUUGUAUGCGAAAGUAUAUUGAUUAGUUUUGGAGUACUCGUGGUCG
Summed up: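 Six replicate transformations of E. coli BL21(DE3) with a pET-22b(+) library were grown overnight at 37°C or 30°C. The library randomised all eight P1ex-region intron nucleotides, the intron lying in the knt kanamycin-resistance gene, and plates were LB agar with or without 25 μg/mL kanamycin plus 100 μg/mL carbenicillin, 50 μM IPTG and 0.2% rhamnose. Pooled colonies were amplicon-sequenced on an Illumina HiSeq 2500, and fitness is the DiMSum error-weighted combination of wild-type-normalised replicate fold changes, kanamycin versus none.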

± gives the uncertainty stated by the source.

63 sequences from the supplement of paper PMC7877785 can be followed below.

On to UCCGAGCAAUAUUACGCCAU, for which the “self-splicing fitness (ln)” value was -2.56 ± 0.28 (30 °C) and -3.16 ± 0.4 (37 °C). UCCGAGCAAUAUUACGCGGA: for the setting “30 °C”, the “self-splicing fitness (ln)” value was -2.27 ± 0.3. Turning to UCCGAGCAAUAUUACGCUUC, under “37 °C”, the “self-splicing fitness (ln)” value was -2.37 ± 0.35. For the sequence UCCGAGCAAUAUUACGGGCA, the “self-splicing fitness (ln)” value (30 °C) is -1.79 ± 0.12 and the “self-splicing fitness (ln)” value (37 °C) is -0.787 ± 0.1. For the sequence UCCGAGCAAUAUUACGGGUG, the “self-splicing fitness (ln)” value runs as follows: (30 °C) -1.97 ± 0.089; (37 °C) -1.66 ± 0.099. The matching figures for UCCGAGCAAUAUUACGGUUG: -3.29 ± 0.26 and -3.07 ± 0.3. As for UCCGAGCAAUAUUACGUAUC, the “self-splicing fitness (ln)” value by setting is: (30 °C) -2.88 ± 0.25; (37 °C) -2.07 ± 0.37. Regarding UCCGAGCAAUAUUACGUCCU, the “self-splicing fitness (ln)” value (30 °C) is -2.6 ± 0.28.

With UCCGAGCAAUAUUACGUCUU, the “self-splicing fitness (ln)” value reads like this: (30 °C) -3.54 ± 0.25; (37 °C) -1.62 ± 0.2. Consider UCCGAGCAAUAUUACGUGUC, for which the “self-splicing fitness (ln)” value (37 °C) was -2.64 ± 0.34. UCCGAGCAAUAUUACGUUAU: the “self-splicing fitness (ln)” value (30 °C) was -3.95 ± 0.21 and the “self-splicing fitness (ln)” value (37 °C) is -1.93 ± 0.19. The matching figures for UCCGAGCAAUAUUACGUUCC: -3.5 ± 0.25 and -3.16 ± 0.32. The corresponding values for UCCGAGCAAUAUUACGUUGA are -2.17 ± 0.097 and -0.915 ± 0.087.

As for UCCUAGCAAUAUUACGACCA, the “self-splicing fitness (ln)” value (30 °C) was -0.552 ± 0.22 and the “self-splicing fitness (ln)” value (37 °C) was -2.28 ± 0.35. As for UCCUAGCAAUAUUACGAUGG, the “self-splicing fitness (ln)” value reads like this: (30 °C) -3.64 ± 0.23; (37 °C) -2.15 ± 0.21. As to UCCUAGCAAUAUUACGAUUU, the “self-splicing fitness (ln)” value by setting is: (30 °C) -2.16 ± 0.16; (37 °C) -1.36 ± 0.21.

Consider UCCUAGCAAUAUUACGCAUC, for which the “self-splicing fitness (ln)” value was -2.3 ± 0.21 (30 °C) and -1.27 ± 0.22 (37 °C). Turning to UCCUAGCAAUAUUACGCCUU, the “self-splicing fitness (ln)” value reads like this: (30 °C) -2.98 ± 0.33; (37 °C) -2.34 ± 0.35. Consider UCCUAGCAAUAUUACGCUCG, for which, for the setting “30 °C”, the “self-splicing fitness (ln)” value is -3.13 ± 0.21. For the sequence UCCUAGCAAUAUUACGGAGU, the “self-splicing fitness (ln)” value was -3.81 ± 0.22 (30 °C) and -1.3 ± 0.13 (37 °C). For UCCUAGCAAUAUUACGGCAU, the “self-splicing fitness (ln)” value was -3.31 ± 0.17 (30 °C) and -2.2 ± 0.11 (37 °C).

In the case of UCCUAGCAAUAUUACGGCGA, the “self-splicing fitness (ln)” value is, setting by setting: (30 °C) -0.128 ± 0.092; (37 °C) 0.153 ± 0.1. UCCUAGCAAUAUUACGGGCG: the “self-splicing fitness (ln)” value (30 °C) was -0.227 ± 0.093 and the “self-splicing fitness (ln)” value (37 °C) was -0.227 ± 0.11. The matching figures for UCCUAGCAAUAUUACGGGGU: -4.13 ± 0.29 and -2.65 ± 0.2.

As for UCCUAGCAAUAUUACGUCUG, the “self-splicing fitness (ln)” value is, setting by setting: (30 °C) -4.52 ± 0.41; (37 °C) -3.05 ± 0.21. Turning to UCCUAGCAAUAUUACGUGAA, the “self-splicing fitness (ln)” value by setting is: (30 °C) -0.777 ± 0.078; (37 °C) -0.552 ± 0.1.

UCCUAGCAAUAUUACGUGCC: the “self-splicing fitness (ln)” value (30 °C) was -2.26 ± 0.33 and the “self-splicing fitness (ln)” value (37 °C) is -2.02 ± 0.39.

UCCUAGCAAUAUUACGUUCU: the “self-splicing fitness (ln)” value is -3.14 ± 0.14 (30 °C) and -2.51 ± 0.13 (37 °C). The corresponding values for UCCUAGCAAUAUUACGUUGG are -3.74 ± 0.27 and -2.35 ± 0.2.

As for UCCUAGCAAUAUUACGUUGU, the “self-splicing fitness (ln)” value (37 °C) is -1.99 ± 0.29. Take UCGAAGCAAUAUUACGACUA: the “self-splicing fitness (ln)” value runs as follows: (30 °C) -1.05 ± 0.16; (37 °C) -0.97 ± 0.13. For the sequence UCGAAGCAAUAUUACGAGAG, the “self-splicing fitness (ln)” value is -3.06 ± 0.43 (30 °C) and -1.91 ± 0.25 (37 °C). Consider UCGAAGCAAUAUUACGAGCA, for which the “self-splicing fitness (ln)” value was -1.77 ± 0.14 (30 °C) and 0.162 ± 0.14 (37 °C).

Turning to UCGAAGCAAUAUUACGAGCG, the “self-splicing fitness (ln)” value runs as follows: (30 °C) -1.04 ± 0.078; (37 °C) -0.114 ± 0.094.

As to UCGAAGCAAUAUUACGAUUA, the “self-splicing fitness (ln)” value is -1.19 ± 0.12 (30 °C) and -0.794 ± 0.11 (37 °C). For UCGAAGCAAUAUUACGCAAC, the “self-splicing fitness (ln)” value (30 °C) was -2.37 ± 0.42. Take UCGAAGCAAUAUUACGCAGC: the “self-splicing fitness (ln)” value runs as follows: (30 °C) -2.71 ± 0.27; (37 °C) -2.18 ± 0.23. For UCGAAGCAAUAUUACGCAUG, the “self-splicing fitness (ln)” value was -1.2 ± 0.085 (30 °C) and -0.698 ± 0.1 (37 °C). Consider UCGAAGCAAUAUUACGCCAG, for which the “self-splicing fitness (ln)” value is -2.24 ± 0.25 (30 °C) and -2.09 ± 0.42 (37 °C).

With UCGAAGCAAUAUUACGCCCA, the “self-splicing fitness (ln)” value reads like this: (30 °C) -1.84 ± 0.32; (37 °C) -0.793 ± 0.25. Turning to UCGAAGCAAUAUUACGCCUA, the “self-splicing fitness (ln)” value (37 °C) is -1.71 ± 0.42. In the case of UCGAAGCAAUAUUACGCGCG, the “self-splicing fitness (ln)” value is, setting by setting: (30 °C) -1.26 ± 0.1; (37 °C) -0.735 ± 0.12.

In the case of UCGAAGCAAUAUUACGCUGU, the “self-splicing fitness (ln)” value runs as follows: (30 °C) -2.33 ± 0.21; (37 °C) -2.06 ± 0.33. For the sequence UCGAAGCAAUAUUACGCUUC, the “self-splicing fitness (ln)” value was -3.77 ± 0.25 (30 °C) and -2.38 ± 0.3 (37 °C). The matching figures for UCGAAGCAAUAUUACGGCAA: -1.81 ± 0.19 and -1.72 ± 0.17. The corresponding values for UCGAAGCAAUAUUACGGCCG are -0.31 ± 0.18 and 0.0326 ± 0.34. For the sequence UCGAAGCAAUAUUACGGCGU, the “self-splicing fitness (ln)” value by setting is: (30 °C) -0.22 ± 0.087; (37 °C) -0.249 ± 0.12. The corresponding values for UCGAAGCAAUAUUACGGGCU are -4.18 ± 0.39 and -2.67 ± 0.35. The corresponding values for UCGAAGCAAUAUUACGGUAG are -1.4 ± 0.1 and -1.61 ± 0.11.

For the sequence UCGAAGCAAUAUUACGGUCU, the “self-splicing fitness (ln)” value is -2.6 ± 0.14 (30 °C) and -0.844 ± 0.13 (37 °C). The matching figures for UCGAAGCAAUAUUACGGUUA: -0.579 ± 0.12 and -0.97 ± 0.097. For UCGAAGCAAUAUUACGUCAU, the “self-splicing fitness (ln)” value reads like this: (30 °C) -2.62 ± 0.15; (37 °C) -2.58 ± 0.21.

As for UCGAAGCAAUAUUACGUGCU, the “self-splicing fitness (ln)” value reads like this: (30 °C) -3.75 ± 0.18; (37 °C) -3.77 ± 0.31. UCGAAGCAAUAUUACGUGGU: the “self-splicing fitness (ln)” value (30 °C) is -3.51 ± 0.18 and the “self-splicing fitness (ln)” value (37 °C) was -2.88 ± 0.24.

With UCGAAGCAAUAUUACGUUGG, the “self-splicing fitness (ln)” value (30 °C) was -2.99 ± 0.12 and the “self-splicing fitness (ln)” value (37 °C) was -1.86 ± 0.15. Regarding UCGAAGCAAUAUUACGUUGU, the “self-splicing fitness (ln)” value by setting is: (30 °C) -2.09 ± 0.19; (37 °C) -2.33 ± 0.2. The matching figures for UCGCAGCAAUAUUACGAAGA: -2.23 ± 0.13 and -1.43 ± 0.15.

Take UCGCAGCAAUAUUACGAAGU: the “self-splicing fitness (ln)” value by setting is: (30 °C) -3.51 ± 0.2; (37 °C) -2.53 ± 0.15.

Take UCGCAGCAAUAUUACGAGGU: the “self-splicing fitness (ln)” value was -3.14 ± 0.25 (30 °C) and -2.85 ± 0.19 (37 °C). The matching figures for UCGCAGCAAUAUUACGAUCA: -1.27 ± 0.15 and -1.18 ± 0.15. In the case of UCGCAGCAAUAUUACGCAAC, the “self-splicing fitness (ln)” value (37 °C) is -2.8 ± 0.17. On to UCGCAGCAAUAUUACGCACU, for which the “self-splicing fitness (ln)” value was -2.21 ± 0.18 (30 °C) and -0.563 ± 0.2 (37 °C). Turning to UCGCAGCAAUAUUACGCCAG, the “self-splicing fitness (ln)” value reads like this: (30 °C) -2.63 ± 0.084; (37 °C) -1.72 ± 0.1.
